B1: β-lactamase inhibitory protein variant BLIP^K74T/W112D (natural protein)
chain: AGVMTGAKFTQIQFGMTRQQVLDIAGAENCETGGSFGDSIHCRGHAAGDYYAYATFGFTSAAADAKVDSKSQETLLAPSAPTLTLAKFNQVTVGMTRAQVLATVGQGSCTTDSEYYPAYPSTAGVTLSLSCFDVDGYSSTGFYRGSAHLWFTDGVLQGKRQWDLV
notes: the variant was found there by mutagenesis and genetic screening; also called BLIP mutant; source: E. coli RB791 (plasmid pGR32), purified (Co2+ Talon resin, Superdex75 gel filtration); not shown: His6, N-terminal, kept

Legend:
Experiment in all cases: enzyme inhibition assay (nitrocefin hydrolysis); β-lactamase (0.2 to 1 nM) mixed with increasing concentrations of BLIP^K74T/W112D in 50 mM sodium phosphate pH 7.0, 100 μg/ml BSA, room temperature, 20 min; initial nitrocefin hydrolysis rates at 482 nm fitted to the Morrison tight binding inhibitor equation
CTX-M-15 β-lactamase = CTX-M-15 β-lactamase (UniProt Q9EXV5)
KPC-7 β-lactamase = KPC-7 β-lactamase (UniProt Q9F663)
[1] = biological target: TEM-1 β-lactamase (enzyme of the Ki assay) (UniProt P62593)
KPC-3 β-lactamase = KPC-3 β-lactamase (UniProt Q9F663)
KPC-6 β-lactamase = KPC-6 β-lactamase (UniProt Q9F663)
KPC-5 β-lactamase = KPC-5 β-lactamase (UniProt Q9F663)
KPC-4 β-lactamase = KPC-4 β-lactamase (UniProt Q9F663)
KPC-8 β-lactamase = KPC-8 β-lactamase (UniProt Q9F663)
[2] = biological target: CTX-M-14 β-lactamase (enzyme of the Ki assay) (UniProt Q9L5C7)
KPC-9 β-lactamase = KPC-9 β-lactamase (UniProt Q9F663)
[3] = biological target: T1, KPC-2 β-lactamase (purified) (UniProt Q9F663 30-293); conditions: both partners purified
T1 construct: KPC-2 carbapenemase (class A β-lactamase); also called KPC-2 carbapenemase; source: E. coli BL21(DE3) (pET-28a+), purified (Co2+ Talon resin, Superdex75 gel filtration)

OXA-48 carbapenemase = biological target: T2, OXA-48 carbapenemase (UniProt Q6XEC0 23-265); conditions: both partners purified
T2 construct: OXA-48 carbapenemase (β-lactamase)

Row | Molecule | Ki (CTX-M-15 β-lactamase) | Ki (KPC-7 β-lactamase) | Ki [1] | Ki (KPC-3 β-lactamase) | Ki (KPC-6 β-lactamase) | Ki (KPC-5 β-lactamase) | Ki (KPC-4 β-lactamase) | Ki (KPC-8 β-lactamase) | Ki [2] | Ki (KPC-9 β-lactamase) | Ki [3] | Ki (OXA-48 carbapenemase)
1 | β-lactamase inhibitory protein variant BLIP^K74T/W112D (from UniProt P35804 37-201) (natural protein) | 433 nM | 1.5 nM | 6240 nM | 2.5 nM | 1.3 nM | 1.5 nM | 1.2 nM | 1.6 nM | 908 nM | 0.7 nM |  | 
2 | B1 |  |  |  |  |  |  |  |  |  |  | 2.4 ± 0.4 nM | 1180 ± 129 nM

From article PMC6952207, “Development and Evaluation of a Novel Protein-Based Assay for Specific Detection of KPC β-Lactamases from Klebsiella pneumoniae Clinical Isolates” (mSphere, 2020)
